From patent publication US20140294878A1 come the findings set out here.

B1: mixture of the two mutagenised allergens (mut Bet v 1-SEQ ID NO:6 and mut Mal d 1-SEQ ID NO:2) (protein)
chain 1: HHHHHHGVFNYETETTSVIPAARLFKAFILDGDNLFPKVAPQAISSVENIEGNGGPGTIAKISFPEGFPFKYVKDRVDEVDHTNFKYNYSVIEGGPIGDTLEKISNEIKIVATPDGGSILAINNKYHTAGDHEVKAEQIKASKEMGETLLRAVESYLLAHSDAYN
chain 2: HHHHHHGVYTFENEFTSEIPPSRLFKAFVLAADNLIPKIAPQAIKQAEILEGDGGPGTIKKITFGEGSQYGYVKHKIDSVDEAAYSYAYTLIEGDALTDTIEKVSYETKLVASGSGSIIKSISHYHTKGDVEIKEEHVKAGKEKAHGLFKLIESYLKGHPDAYN
B2: mixture of the single wt allergens (wt Bet v 1 and wt Mal d 1) (protein)
chain 1: B1 chain 1 with A60K, A121K, A129K
chain 2: B1 chain 2 with A31D, A84N
B3: wild-type Bet v 1-Mal d 1 hybrid molecule (SEQ ID NO: 3) (protein)
chain: HHHHHHGVFNYETETTSVIPAARLFKAFILDGDNLFPKVAPQAISSVENIEGNGGPGTIKKISFPEGFPFKYVKDRVDEVDHTNFKYNYSVIEGGPIGDTLEKISNEIKIVATPDGGSILKINNKYHTKGDHEVKAEQIKASKEMGETLLRAVESYLLAHSDAYNEFGVYTFENEFTSEIPPSRLFKAFVLDADNLIPKIAPQAIKQAEILEGDGGPGTIKKITFGEGSQYGYVKHKIDSVDEANYSYAYTLIEGDALTDTIEKVSYETKLVASGSGSIIKSISHYHTKGDVEIKEEHVKAGKEKAHGLFKLIESYLKGHPDAYN
B4: mutant Bet v 1-Mal d 1 hybrid molecule (SEQ ID NO: 4) (protein)
chain: B3 chain with K60A, K121A, K129A, D192A, N245A
B5: hypoallergenic Mal d 1 variant with two substitutions, positions 25 and 78 (SEQ ID NO: 2) (protein)
chain: B1 chain 2
B6: Mal d 1 variant with the single substitution Asn 78 in Ala (SEQ ID NO: 11) (protein)
chain: B1 chain 2 with A31D
B7: wild-type Bet v 1, major allergen of Betula verrucosa pollen (SEQ ID NO: 5) (protein)
chain: B1 chain 1 with A60K, A121K, A129K
B8: wild-type Mal d 1, major allergen of Malus domestica (SEQ ID NO: 1) (protein)
chain: B1 chain 2 with A31D, A84N

Where a chain is given by its changes, count along the chain named.

One test concerns the target specific IgE contained in the sera of 7 patients allergic to birch and apple. Kind of test: ELISA inhibition, 7 sera pre-incubated with 1.25 µg/ml inhibitor; competitor: wt Bet v 1 adsorbed on wells. For orientation: In an ELISA, binding on a coated surface is turned into a signal by an enzyme label.
The molecule B1 showed a mean % inhibition of Bet v 1-IgE binding (7 sera) of 53.3%.

In turn, B2 returned a mean % inhibition of Bet v 1-IgE binding (7 sera) of 79.9%.

B3 displayed a mean % inhibition of Bet v 1-IgE binding (7 sera) of 63.3%.

Take B4: the mean % inhibition of Bet v 1-IgE binding (7 sera) came out at 32.1%.

The next test addresses IgEs from a pool of sera from patients allergic to birch pollen and apple. Nature of the test: ELISA inhibition, serum pool pre-incubated with 0.3125 µg/ml inhibitor; competitor: wt Mal d 1 adsorbed on wells.
In turn, B5 displayed a % inhibition of wt Mal d 1-IgE binding of 25.4%.

B6 gave a % inhibition of SEQ ID NO:1-IgE binding of 19.7%.

The next test concerns the target IgE of patient serum 7. Nature of the test: ELISA inhibition, serum 7 pre-incubated with 1.25 µg/ml inhibitor; competitor: wt Bet v 1 adsorbed on wells.
Molecule B1 had a % inhibition of Bet v 1-IgE binding of 20.6%.

For B2, the % inhibition of Bet v 1-IgE binding worked out at 36.8%.

As to B3, the % inhibition of Bet v 1-IgE binding is 15.9%.

On to B4, for which the % inhibition of Bet v 1-IgE binding was determined as 18.2%.

In the next test the target is IgE of patient serum 3. Kind of test: ELISA inhibition, serum 3 pre-incubated with 1.25 µg/ml inhibitor; competitor: wt Mal d 1 adsorbed on wells.
As for B1, the % inhibition of Mal d 1-IgE binding amounted to 49%.

Turning to B2, the % inhibition of Mal d 1-IgE binding turned out to be 80.5%.

B3: the % inhibition of Mal d 1-IgE binding worked out at 75.1%.

B4: the % inhibition of Mal d 1-IgE binding was 66.3%.

The target of a further test is IgE of patient serum 2. Kind of test: ELISA inhibition, serum 2 pre-incubated with 1.25 µg/ml inhibitor; competitor: wt Bet v 1 adsorbed on wells.
Take B1: the % inhibition of Bet v 1-IgE binding turned out to be 72.8%.

B2 came in with a % inhibition of Bet v 1-IgE binding of 96.6%.

In turn, B3 had a % inhibition of Bet v 1-IgE binding of 85.1%.

As for B4, the % inhibition of Bet v 1-IgE binding came out at 36.4%.

In another test the target is IgE of patient serum 1. Nature of the test: ELISA inhibition, serum 1 pre-incubated with 1.25 µg/ml inhibitor; competitor: wt Mal d 1 adsorbed on wells.
Molecule B1 showed a % inhibition of Mal d 1-IgE binding of 76.7%.

Regarding B2, the % inhibition of Mal d 1-IgE binding was determined as 95.5%.

B3: the % inhibition of Mal d 1-IgE binding stood at 92%.

In the case of B4, the % inhibition of Mal d 1-IgE binding came out at 91%.

The target in another test is IgE of patient serum 4. Nature of the test: ELISA inhibition, serum 4 pre-incubated with 1.25 µg/ml inhibitor; competitor: wt Bet v 1 adsorbed on wells.
As to B1, the % inhibition of Bet v 1-IgE binding was 56.5%.

The molecule B2 showed a % inhibition of Bet v 1-IgE binding of 81.2%.

The molecule B3 came in with a % inhibition of Bet v 1-IgE binding of 61.7%.

As to B4, the % inhibition of Bet v 1-IgE binding was determined as 35.9%.

Another test concerns the target IgE of patient serum 6. Kind of test: ELISA inhibition, serum 6 pre-incubated with 1.25 µg/ml inhibitor; competitor: wt Bet v 1 adsorbed on wells.
With B1, the % inhibition of Bet v 1-IgE binding stood at 41.8%.

As to B2, the % inhibition of Bet v 1-IgE binding worked out at 65.2%.

The molecule B3 showed a % inhibition of Bet v 1-IgE binding of 56.6%.

Molecule B4 had a % inhibition of Bet v 1-IgE binding of 0%.

The next test deals with IgEs from a pool of sera from patients allergic to birch pollen and apple. Nature of the test: ELISA inhibition, serum pool pre-treated with 0.625 µg/ml inhibitor; competitor: wt Bet v 1 adsorbed on wells.
Regarding B6, the % inhibition of wt Bet v 1-IgE binding stood at 32.1%.

For the molecule B7, the % inhibition of wt Bet v 1-IgE binding was determined as 94%.

Another test has as its target IgE of patient serum 4. Nature of the test: ELISA inhibition, serum 4 pre-incubated with 1.25 µg/ml inhibitor; competitor: wt Mal d 1 adsorbed on wells.
B1 yielded a % inhibition of Mal d 1-IgE binding of 46%.

As for B2, the % inhibition of Mal d 1-IgE binding was 77.3%.

The molecule B3 yielded a % inhibition of Mal d 1-IgE binding of 71.3%.

In turn, B4 registered a % inhibition of Mal d 1-IgE binding of 64.3%.

For the next test, the target named is specific IgE contained in the sera of 7 patients allergic to birch and apple. Kind of test: ELISA inhibition, 7 sera pre-incubated with 1.25 µg/ml inhibitor; competitor: wt Mal d 1 adsorbed on wells.
For the molecule B1, the mean % inhibition of Mal d 1-IgE binding (7 sera) was determined as 51.6%.

Take B2: the mean % inhibition of Mal d 1-IgE binding (7 sera) was determined as 82.8%.

Regarding B3, the mean % inhibition of Mal d 1-IgE binding (7 sera) turned out to be 74.6%.

As for B4, the mean % inhibition of Mal d 1-IgE binding (7 sera) was 63.6%.

The target in another test is IgE of patient serum 7. Kind of test: ELISA inhibition, serum 7 pre-incubated with 1.25 µg/ml inhibitor; competitor: wt Mal d 1 adsorbed on wells.
B1 gave a % inhibition of Mal d 1-IgE binding of 65.6%.

B2 registered a % inhibition of Mal d 1-IgE binding of 70.3%.

Regarding B3, the % inhibition of Mal d 1-IgE binding worked out at 60.6%.

On to B4, for which the % inhibition of Mal d 1-IgE binding was 60.4%.

A further test concerns the target IgE of patient serum 5. Nature of the test: ELISA inhibition, serum 5 pre-incubated with 1.25 µg/ml inhibitor; competitor: wt Mal d 1 adsorbed on wells.
For B1, the % inhibition of Mal d 1-IgE binding was found to be 27.6%.

On to B2, for which the % inhibition of Mal d 1-IgE binding worked out at 88.3%.

In turn, B3 returned a % inhibition of Mal d 1-IgE binding of 68%.

Consider B4, for which the % inhibition of Mal d 1-IgE binding stood at 50.8%.

The next test has as its target IgE of patient serum 6. Kind of test: ELISA inhibition, serum 6 pre-incubated with 1.25 µg/ml inhibitor; competitor: wt Mal d 1 adsorbed on wells.
As to B1, the % inhibition of Mal d 1-IgE binding is 53.9%.

The molecule B2 yielded a % inhibition of Mal d 1-IgE binding of 73.7%.

Consider B3, for which the % inhibition of Mal d 1-IgE binding is 70.5%.

As to B4, the % inhibition of Mal d 1-IgE binding is 70.8%.

A further test has as its target IgE of patient serum 2. Nature of the test: ELISA inhibition, serum 2 pre-incubated with 1.25 µg/ml inhibitor; competitor: wt Mal d 1 adsorbed on wells.
Consider B1, for which the % inhibition of Mal d 1-IgE binding was 42.4%.

Molecule B2 yielded a % inhibition of Mal d 1-IgE binding of 93.9%.

In turn, B3 gave a % inhibition of Mal d 1-IgE binding of 84.5%.

Regarding B4, the % inhibition of Mal d 1-IgE binding came to 41.9%.

For another test, the target named is IgE of patient serum 5. Kind of test: ELISA inhibition, serum 5 pre-incubated with 1.25 µg/ml inhibitor; competitor: wt Bet v 1 adsorbed on wells.
With B1, the % inhibition of Bet v 1-IgE binding is 41%.

Regarding B2, the % inhibition of Bet v 1-IgE binding was 91.6%.

As to B3, the % inhibition of Bet v 1-IgE binding is 50.8%.

B4: the % inhibition of Bet v 1-IgE binding is 7.8%.

The target in the next test is IgE of patient serum 1. Nature of the test: ELISA inhibition, serum 1 pre-incubated with 1.25 µg/ml inhibitor; competitor: wt Bet v 1 adsorbed on wells.
B1 yielded a % inhibition of Bet v 1-IgE binding of 88.4%.

For B2, the % inhibition of Bet v 1-IgE binding was found to be 97.1%.

Molecule B3 had a % inhibition of Bet v 1-IgE binding of 93.6%.

As for B4, the % inhibition of Bet v 1-IgE binding came to 90.2%.

The next test addresses IgE of patient serum 3. Kind of test: ELISA inhibition, serum 3 pre-incubated with 1.25 µg/ml inhibitor; competitor: wt Bet v 1 adsorbed on wells.
B1 came in with a % inhibition of Bet v 1-IgE binding of 52.3%.

On to B2, for which the % inhibition of Bet v 1-IgE binding stood at 90.9%.

For the molecule B3, the % inhibition of Bet v 1-IgE binding is 76.2%.

B4: the % inhibition of Bet v 1-IgE binding was 35.9%.

The next test addresses IgEs from a pool of sera from patients allergic to birch pollen and apple. Nature of the test: ELISA inhibition, serum pool pre-treated with 0.3125 µg/ml inhibitor; competitor: wt Mal d 1 adsorbed on wells.
Turning to B8, the % inhibition of wt Mal d 1-IgE binding worked out at 93.3%.

Another test shares this target. Kind of test: ELISA inhibition, serum pool pre-incubated with 0.625 µg/ml inhibitor; competitor: wt Bet v 1 adsorbed on wells.
B5: the % inhibition of wt Bet v 1-IgE binding was determined as 4.2%.

For the molecule B8, the % inhibition of wt Bet v 1-IgE binding came to 46%.
